Assay results: paper PMC4337892 (Molecular cell, 2014)
Numbering of substitutions follows the chain as printed. In names and notes the source's numbering stands. One block for each binder: values may come before it.

Experiments:
[1] = target: T1, H. sapiens laforin residues 1-328, wild-type (human), O95278; assay: AUC; conditions: remark: other sources report otherwise
T1 chain: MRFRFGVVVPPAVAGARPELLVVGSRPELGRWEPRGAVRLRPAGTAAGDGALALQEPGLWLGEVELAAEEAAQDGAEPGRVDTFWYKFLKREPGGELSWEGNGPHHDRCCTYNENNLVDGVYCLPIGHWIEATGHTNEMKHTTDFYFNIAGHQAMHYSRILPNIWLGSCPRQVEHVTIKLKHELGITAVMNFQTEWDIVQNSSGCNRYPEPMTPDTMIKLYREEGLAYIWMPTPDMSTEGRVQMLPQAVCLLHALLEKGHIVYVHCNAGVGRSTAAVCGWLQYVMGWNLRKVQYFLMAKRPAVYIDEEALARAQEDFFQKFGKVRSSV

SEC-SAXS = target: the molecule itself; assay: SEC-SAXS

- stoichiometry N [1]: 2
B1: H. sapiens laforin residues 1-328, wild-type, O95278 1-328 (enzyme)
chain: T1 chain

B2: H. sapiens laforin residues 1-328, C266S (enzyme, human, UniProt O95278 1-328, looked up)
chain: T1 chain with C266S
- stoichiometry N (SEC-SAXS): 2
